Test results reported in IntAct's records for PubMed 17699755.

Biological target: hfr1_arath HFR1 (UniProt Q9FE22)
Sequence (Q9FE22 whole entry): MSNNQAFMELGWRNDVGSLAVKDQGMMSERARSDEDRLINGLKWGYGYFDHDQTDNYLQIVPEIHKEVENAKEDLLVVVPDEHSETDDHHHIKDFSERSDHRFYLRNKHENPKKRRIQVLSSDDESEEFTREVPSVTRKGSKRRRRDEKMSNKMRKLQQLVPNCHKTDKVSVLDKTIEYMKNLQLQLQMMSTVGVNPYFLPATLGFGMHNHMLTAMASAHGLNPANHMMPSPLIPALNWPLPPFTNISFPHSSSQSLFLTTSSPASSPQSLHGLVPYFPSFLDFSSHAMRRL

Sequence of Transcription factor LAF1 (Arabidopsis thaliana (Mouse-ear cress)), Q9M0K4 R97A (Q9M0K4 whole entry R97A): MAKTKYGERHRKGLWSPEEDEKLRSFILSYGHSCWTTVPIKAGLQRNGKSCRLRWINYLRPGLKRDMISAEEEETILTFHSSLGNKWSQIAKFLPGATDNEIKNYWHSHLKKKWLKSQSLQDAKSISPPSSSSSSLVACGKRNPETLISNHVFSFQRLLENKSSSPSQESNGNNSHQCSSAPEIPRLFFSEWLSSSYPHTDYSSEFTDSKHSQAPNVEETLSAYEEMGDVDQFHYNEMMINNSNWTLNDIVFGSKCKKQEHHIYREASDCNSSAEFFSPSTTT

Substance: Transcription factor LAF1 (Arabidopsis thaliana (Mouse-ear cress)), Q9M0K4 R97A
- effect of a mutation on the interaction: disrupting interaction

Substance: Transcription factor LAF1 (Arabidopsis thaliana (Mouse-ear cress)), Q9M0K4 W87A
- effect of a mutation on the interaction: decreasing interaction
